A word on the IC50: it is the concentration at which inhibition is half-maximal. By EC50 is commonly meant the concentration needed to bring the measured effect to its halfway point.

We go through 4 molecules from US20240116985A1 (published 2024).

Starred links: 1 amine or outer side, 2 acyl side, 3 side chain; linkers in the order of their positions; H or OH if unused. Positions of bridges follow the written chain, without caps; N, C: chain ends. Non-standard residues stand in square brackets, D forms with d. Primed or numbered codes have the meaning given here. B5(10) = 2-amino-2-(pent-4-en-1-yl)hept-6-enoic acid, bis(4-pentenyl)glycine, stitching residue bearing both staples, C=CCCCC(CCCC=C)(N[*:1])C(=O)[*:2]; PyrS2(3) = (S)-3-amino-1-((pent-4-en-1-yloxy)carbonyl)pyrrolidine-3-carboxylic acid, stapling residue, C=CCCCOC(=O)N1CC[C@@](N[*:1])(C(=O)[*:2])C1; PyrS2 = (S)-3-amino-1-((pent-4-en-1-yloxy)carbonyl)pyrrolidine-3-carboxylic acid, C=CCCCOC(=O)N1CC[C@@](N[*:1])(C(=O)[*:2])C1; Phe(2-Cl) = N[C@@H](Cc1ccccc1Cl)C(=O)O; Bta = N[C@@H](Cc1csc2ccccc12)C(=O)O; αAllylPro = C=CC[C@@]1(C(=O)O)CCCN1; Cha = N[C@@H](CC1CCCCC1)C(=O)O; R5 = C=CCCC[C@@](C)(N)C(=O)O

For test [1], the target named is T1, full-length beta-Catenin (Uniprot ID P35222) (Homo sapiens (Human), UniProt P35222 1-781).
T1 construct: also called bCat
T1 sequence: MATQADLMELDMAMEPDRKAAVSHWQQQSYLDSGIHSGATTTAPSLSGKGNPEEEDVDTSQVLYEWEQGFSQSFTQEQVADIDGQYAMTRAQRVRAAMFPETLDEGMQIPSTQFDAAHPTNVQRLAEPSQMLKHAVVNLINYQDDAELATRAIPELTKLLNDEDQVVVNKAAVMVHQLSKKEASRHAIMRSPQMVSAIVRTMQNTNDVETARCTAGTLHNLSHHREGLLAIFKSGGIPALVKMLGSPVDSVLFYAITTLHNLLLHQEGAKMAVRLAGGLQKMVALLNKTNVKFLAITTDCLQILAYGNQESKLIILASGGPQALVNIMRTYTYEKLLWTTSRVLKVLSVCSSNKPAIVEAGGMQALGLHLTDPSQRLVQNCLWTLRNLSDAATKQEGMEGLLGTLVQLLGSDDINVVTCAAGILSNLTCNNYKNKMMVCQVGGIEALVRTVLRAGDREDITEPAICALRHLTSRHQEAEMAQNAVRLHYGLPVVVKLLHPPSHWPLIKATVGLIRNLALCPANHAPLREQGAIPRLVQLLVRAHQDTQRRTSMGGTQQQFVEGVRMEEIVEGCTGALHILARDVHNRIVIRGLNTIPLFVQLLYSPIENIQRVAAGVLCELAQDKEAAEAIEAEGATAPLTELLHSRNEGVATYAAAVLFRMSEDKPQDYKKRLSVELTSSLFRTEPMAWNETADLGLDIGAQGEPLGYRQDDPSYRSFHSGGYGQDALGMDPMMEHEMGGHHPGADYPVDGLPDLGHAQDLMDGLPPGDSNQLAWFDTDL
The test can be described thus: fluorescence polarization competition against 5FAM-TCF4(10-53) on full-length beta-catenin. The procedure: (§1) The plate was incubated protected from light for 60 minutes at 20° C. prior to read. Reads were performed on a CLARIOstar plate reader (BMG Labtech) in duplicate, and data were fitted to a 1:1 binding model with hill slope using an in-house script. All provided concentrations are final concentrations.
A general note: Fluorescence polarisation rises when a labelled molecule tumbles more slowly, as on binding a larger partner.

Test [2] addresses T2, full-length beta-Catenin (Uniprot ID P35222) (Homo sapiens (Human), UniProt P35222 1-781).
T2 construct: also called bCat; B-Catenin
T2 sequence: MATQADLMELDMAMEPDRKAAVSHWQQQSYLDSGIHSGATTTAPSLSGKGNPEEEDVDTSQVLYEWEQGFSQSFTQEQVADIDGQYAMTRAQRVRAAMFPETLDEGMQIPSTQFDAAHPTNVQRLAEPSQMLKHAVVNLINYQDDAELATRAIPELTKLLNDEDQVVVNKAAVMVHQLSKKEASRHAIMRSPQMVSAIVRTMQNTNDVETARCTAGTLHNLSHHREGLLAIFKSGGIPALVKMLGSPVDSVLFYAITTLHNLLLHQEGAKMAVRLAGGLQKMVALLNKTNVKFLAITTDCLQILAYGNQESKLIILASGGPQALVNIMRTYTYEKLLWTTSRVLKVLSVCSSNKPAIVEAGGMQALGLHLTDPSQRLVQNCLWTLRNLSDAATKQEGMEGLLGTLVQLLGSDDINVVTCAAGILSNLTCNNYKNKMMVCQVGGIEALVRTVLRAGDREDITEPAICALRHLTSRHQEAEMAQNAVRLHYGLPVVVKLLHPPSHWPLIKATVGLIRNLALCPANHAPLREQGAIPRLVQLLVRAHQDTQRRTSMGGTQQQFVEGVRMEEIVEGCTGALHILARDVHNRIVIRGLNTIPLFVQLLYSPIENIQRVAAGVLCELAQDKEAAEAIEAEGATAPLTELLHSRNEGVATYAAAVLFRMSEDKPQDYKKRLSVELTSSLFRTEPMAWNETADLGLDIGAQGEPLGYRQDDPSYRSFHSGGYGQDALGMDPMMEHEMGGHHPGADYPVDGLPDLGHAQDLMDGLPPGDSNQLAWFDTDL
The experiment in a line: fluorescence polarization competition; displacement of 5FAM-TCF4(10-53) from full-length beta-catenin. An outline of the steps:
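Incubate 60 minutes at 20° C. away from light, then read polarization in duplicate. Fit to 1:1 binding with hill slope.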

The target in test [3] is T3, B-cat-Halo (UniProt P35222 1-781).
T3 sequence (looked up): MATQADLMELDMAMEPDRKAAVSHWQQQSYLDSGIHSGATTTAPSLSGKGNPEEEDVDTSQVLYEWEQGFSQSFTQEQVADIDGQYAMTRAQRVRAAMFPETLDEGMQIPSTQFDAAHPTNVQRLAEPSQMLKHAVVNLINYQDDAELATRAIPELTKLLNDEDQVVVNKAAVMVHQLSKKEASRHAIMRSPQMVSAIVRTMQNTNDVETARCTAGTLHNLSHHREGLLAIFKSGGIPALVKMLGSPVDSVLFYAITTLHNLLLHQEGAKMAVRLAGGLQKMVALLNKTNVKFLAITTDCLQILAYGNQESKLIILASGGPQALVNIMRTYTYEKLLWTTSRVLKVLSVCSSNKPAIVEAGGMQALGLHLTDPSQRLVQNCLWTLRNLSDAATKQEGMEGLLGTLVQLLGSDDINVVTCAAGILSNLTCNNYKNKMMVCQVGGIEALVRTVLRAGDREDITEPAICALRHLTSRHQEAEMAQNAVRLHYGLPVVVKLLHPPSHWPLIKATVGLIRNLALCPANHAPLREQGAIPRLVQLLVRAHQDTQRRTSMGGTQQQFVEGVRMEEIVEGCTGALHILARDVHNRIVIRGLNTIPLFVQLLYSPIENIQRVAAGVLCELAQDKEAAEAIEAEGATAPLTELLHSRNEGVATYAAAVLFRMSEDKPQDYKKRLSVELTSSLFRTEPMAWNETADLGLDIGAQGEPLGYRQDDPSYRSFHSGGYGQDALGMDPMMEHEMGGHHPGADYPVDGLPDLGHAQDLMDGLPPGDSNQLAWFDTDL
The test can be described thus: cell-based or functional assay.

Test [4] deals with T4, full-length beta-Catenin (Uniprot ID P35222) (Homo sapiens (Human), UniProt P35222 2-781).
T4 construct: The FP protocol says 'full-length beta-Catenin (Uniprot ID P35222)'; also called bCat; B-Catenin
T4 sequence: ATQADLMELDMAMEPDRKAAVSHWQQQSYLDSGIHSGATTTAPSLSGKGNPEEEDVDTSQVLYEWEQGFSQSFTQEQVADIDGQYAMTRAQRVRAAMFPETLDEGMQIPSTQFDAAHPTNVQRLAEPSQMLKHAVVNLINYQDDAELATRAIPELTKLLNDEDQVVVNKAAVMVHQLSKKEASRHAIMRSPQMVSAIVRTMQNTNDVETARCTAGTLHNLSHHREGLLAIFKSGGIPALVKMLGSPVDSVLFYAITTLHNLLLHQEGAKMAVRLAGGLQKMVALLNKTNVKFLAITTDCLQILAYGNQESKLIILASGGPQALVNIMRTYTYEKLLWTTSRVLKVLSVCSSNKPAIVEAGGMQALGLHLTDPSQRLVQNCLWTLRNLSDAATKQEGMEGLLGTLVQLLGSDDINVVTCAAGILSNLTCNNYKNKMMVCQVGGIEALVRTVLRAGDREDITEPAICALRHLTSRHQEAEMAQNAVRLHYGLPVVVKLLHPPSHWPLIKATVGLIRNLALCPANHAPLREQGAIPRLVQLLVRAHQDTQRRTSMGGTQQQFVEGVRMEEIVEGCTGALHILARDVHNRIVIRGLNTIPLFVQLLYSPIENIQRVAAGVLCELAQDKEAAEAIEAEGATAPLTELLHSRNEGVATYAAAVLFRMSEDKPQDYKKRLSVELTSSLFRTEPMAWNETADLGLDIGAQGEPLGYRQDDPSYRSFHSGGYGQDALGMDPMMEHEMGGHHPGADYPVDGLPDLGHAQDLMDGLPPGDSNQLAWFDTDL
The experiment in a line: fluorescence polarization competition; full-length beta-catenin + 5FAM-TCF4 10-53 probe. The procedure:
as §1

For test [5], the target named is T5, full-length beta-Catenin (Uniprot ID P35222) (Homo sapiens (Human), UniProt P35222 2-781).
T5 construct: also called bCat; B-Catenin
T5 sequence: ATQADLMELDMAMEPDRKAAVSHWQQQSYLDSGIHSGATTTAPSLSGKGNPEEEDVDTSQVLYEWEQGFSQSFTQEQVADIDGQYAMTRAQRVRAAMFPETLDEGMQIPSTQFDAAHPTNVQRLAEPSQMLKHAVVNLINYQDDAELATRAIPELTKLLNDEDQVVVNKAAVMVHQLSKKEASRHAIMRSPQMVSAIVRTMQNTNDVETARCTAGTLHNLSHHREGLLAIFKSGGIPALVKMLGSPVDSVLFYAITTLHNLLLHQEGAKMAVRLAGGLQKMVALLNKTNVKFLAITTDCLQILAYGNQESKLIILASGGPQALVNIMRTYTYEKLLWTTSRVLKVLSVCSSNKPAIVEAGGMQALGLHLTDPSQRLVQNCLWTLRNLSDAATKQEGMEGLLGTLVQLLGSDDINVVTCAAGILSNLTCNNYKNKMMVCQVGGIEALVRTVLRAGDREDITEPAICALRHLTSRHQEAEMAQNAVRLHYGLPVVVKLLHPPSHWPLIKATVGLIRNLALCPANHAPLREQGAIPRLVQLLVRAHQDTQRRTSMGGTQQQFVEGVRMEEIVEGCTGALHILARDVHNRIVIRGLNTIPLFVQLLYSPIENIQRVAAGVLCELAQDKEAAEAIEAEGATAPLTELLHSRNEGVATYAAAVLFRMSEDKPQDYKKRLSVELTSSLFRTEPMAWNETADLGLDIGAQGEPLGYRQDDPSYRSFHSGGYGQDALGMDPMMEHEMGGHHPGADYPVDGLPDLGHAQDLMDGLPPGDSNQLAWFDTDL
The test can be described thus: fluorescence polarization competition, displacement of 5FAM-TCF4 10-53 from full-length beta-catenin. The procedure: as §1

B1: I-1286 (peptide)
peptide: Ac-[αAllylPro]NA[B5(10)]DTAAFL[PyrS2]F[Bta]Q-NH2
modifications: staple 1-4, 4-11; not fully specified; printed as Ac-PL3-Asn-Ala-B5-Asp-Thr-Ala-Ala-Phe-Leu-PyrS2-Phe-BztA-Gln-NH2
notes: Stapled peptide
In test [1], B1 returned an IC50 of 10 µM.

B2: I-567 (peptide)
peptide: XDVXDDAAFNXFXQ
modifications: not fully specified; Ac-PL3-Asp-Val-B5-Asp-Asp-Ala-Ala-Phe-Asn-S8-Phe-BztA-Gln-NH2; N-terminal acetyl, C-terminal amide; non-natural: PL3(1), B5(4), S8(11), BztA(13); staples PL3(1)-B5(4) and B5(4)-S8(11)
Take B2: the 50% effective concentration (EC50) in test [2] came out at 0.037 µM. Further, in test [3], the “NanoBRET % inh @ 10 uM” value is 8.9%.

B3: I-1295 (peptide)
peptide: Ac-[αAllylPro]DA[B5(10)]NTAAFL[PyrS2]F[Bta]Q-NH2
modifications: staple 1-4, 4-11; not fully specified; printed as Ac-PL3-Asp-Ala-B5-Asn-Thr-Ala-Ala-Phe-Leu-PyrS2-Phe-BztA-Gln-NH2
notes: earlier eluting HPLC peak (staple isomer composition); also called Ac-PL3-Asp-Ala-B5-Asn-Thr-Ala-Ala-Phe-Leu-PyrS2-Phe-BztA-Gln-NH2
B3: the half-inhibitory concentration (IC50) in test [4] worked out at 10 µM.
Regarding Ac-PD[Cha][R5]DDAAFT[PyrS2(3)][Phe(2-Cl)][Bta]S-NH2 (staple 4-11, Stapled peptide, one staple) [I-1184], the IC50 in test [5] turned out to be 0.176 µM.
